Numbering of substitutions follows the chain as printed. Names and notes keep the numbering of the source.
B1: variant CD80 IgV-Fc Q33R/E35D/D46E/M47I (Fc fusion, not shown: a dimerising Fc or GST)
chain: VIHVTKEVKEVATLSCGHNVSVEELAQTRIYWRKDKKMVLTMMSGEINIWPEYKNRTIFDITNNLSIVILALRPSDEGTYECVVLKYEKDAFKREHLAEVTLSVKAD
B2: variant CD80 IgV-Fc Q33K/E35D/D46V/L85Q (Fc fusion, not shown: a dimerising Fc or GST)
chain: B1 chain with R33K, E46V, I47M, L85Q
B3: variant CD80 IgV-Fc Q33L/E35D/M47I (Fc fusion, not shown: a dimerising Fc or GST)
chain: B1 chain with R33L, E46D
B4: variant CD80 IgV-Fc Q33L/E35D/T41S/M47V (Fc fusion, not shown: a dimerising Fc or GST)
chain: B1 chain with R33L, T41S, E46D, I47V
B5: CD80 IgV-Fc S21P/E35D/K37E/D46E/M47I/V68M (Fc fusion, not shown: a dimerising Fc or GST)
chain: B1 chain with S21P, R33Q, K37E, V68M
B6: CD80 IgV-Fc T13R/Q33R/E35D/M38I/M47L/V68M/L85M/R94Q (Fc fusion, not shown: a dimerising Fc or GST)
chain: B1 chain with T13R, M38I, E46D, I47L, V68M, L85M, R94Q
B7: CD80 IgV-Fc V22D/E24D/E35D/M47V/V68M (Fc fusion, not shown: a dimerising Fc or GST)
chain: B1 chain with V22D, E24D, R33Q, E46D, I47V, V68M
B8: CD80 IgV-Fc V22D/E24D/E35D/M47L/V68M (Fc fusion, not shown: a dimerising Fc or GST)
chain: B1 chain with V22D, E24D, R33Q, E46D, I47L, V68M
B9: CD80 IgV-Fc T13R/E35D/M47L/V68M (Fc fusion, not shown: a dimerising Fc or GST)
chain: B1 chain with T13R, R33Q, E46D, I47L, V68M
B10: CD80 IgV-Fc S21P/E35D/K37E/D46E/M47I/V68M/R94L (Fc fusion, not shown: a dimerising Fc or GST)
chain: B1 chain with S21P, R33Q, K37E, V68M, R94L
B11: variant CD80 IgV-Fc (inert) H18V/A26N/E35D/M47V/V68M/A71G (Fc fusion)
chain: B1 chain with H18V, A26N, R33Q, E46D, I47V, V68M, A71G
notes: not shown: inert human IgG1 Fc
B12: variant CD80 IgV-Fc (inert) H18Y/A26P/E35D/M47V/V68M/A71G (Fc fusion)
chain: B1 chain with H18Y, A26P, R33Q, E46D, I47V, V68M, A71G
notes: as for B11
B13: variant CD80 IgV-Fc (inert) H18R/A26P/E35D/D46N/M47V/V68M/A71G/D90P (Fc fusion)
chain: B1 chain with H18R, A26P, R33Q, E46N, I47V, V68M, A71G, D90P
notes: as for B11
B14: variant CD80 IgV-Fc (inert) H18V/A26P/E35D/M47V/V68L/A71G (Fc fusion)
chain: B1 chain with H18V, A26P, R33Q, E46D, I47V, V68L, A71G
notes: as for B11
B15: variant CD80 IgV-Fc (inert) H18F/A26P/E35D/M47I/V68M/A71G/D90G (Fc fusion)
chain: B1 chain with H18F, A26P, R33Q, E46D, V68M, A71G, D90G
notes: as for B11
B16: CD80 E35D/M47V/V68M IgV-Fc (Fc fusion, not shown: small tags and cut ends; a dimerising Fc or GST)
chain: B1 chain with R33Q, E46D, I47V, V68M
B17: CD80 E35D/M47V/V68M/K89N IgV-Fc (Fc fusion, not shown: small tags and cut ends; a dimerising Fc or GST)
chain: B1 chain with R33Q, E46D, I47V, V68M, K89N
B18: CD80 V68M/K89N IgV-Fc (Fc fusion, not shown: small tags and cut ends; a dimerising Fc or GST)
chain: B1 chain with R33Q, D35E, E46D, I47M, V68M, K89N
B19: CD80 E35D/M47V/N48K IgV-Fc (Fc fusion, not shown: small tags and cut ends; a dimerising Fc or GST)
chain: B1 chain with R33Q, E46D, I47V, N48K
B20: CD80 E35D/M47V/N48K/V68M IgV-Fc (Fc fusion, not shown: small tags and cut ends; a dimerising Fc or GST)
chain: B1 chain with R33Q, E46D, I47V, N48K, V68M
B21: CD80 M47V/N48K/V68M/K89N IgV-Fc (Fc fusion, not shown: small tags and cut ends; a dimerising Fc or GST)
chain: B1 chain with R33Q, D35E, E46D, I47V, N48K, V68M, K89N
B22: CD80 N48K/V68M/K89N IgV-Fc (Fc fusion, not shown: small tags and cut ends; a dimerising Fc or GST)
chain: B1 chain with R33Q, D35E, E46D, I47M, N48K, V68M, K89N
B23: variant CD80 IgV-Fc (inert) A26P/E35D/M47I/V68M/A71G/D90G (Fc fusion)
chain: B1 chain with A26P, R33Q, E46D, V68M, A71G, D90G
notes: as for B11
B24: variant CD80 IgV-Fc E35D/M43I/M47L/L85M (Fc fusion, not shown: a dimerising Fc or GST)
chain: B1 chain with R33Q, M43I, E46D, I47L, L85M
B25: variant CD80 IgV-Fc E35D/M47V/I61V/L85M (Fc fusion, not shown: a dimerising Fc or GST)
chain: B1 chain with R33Q, E46D, I47V, I61V, L85M
B26: variant CD80 IgV-Fc E35D/M47L/A71G (Fc fusion, not shown: a dimerising Fc or GST)
chain: B1 chain with R33Q, E46D, I47L, A71G
B27: CD80 E35D/V68M/K89N IgV-Fc (Fc fusion, not shown: small tags and cut ends; a dimerising Fc or GST)
chain: B1 chain with R33Q, E46D, I47M, V68M, K89N
B28: variant CD80 IgV-Fc E35D/M47V/L85M/R94Q (Fc fusion, not shown: a dimerising Fc or GST)
chain: B1 chain with R33Q, E46D, I47V, L85M, R94Q
B29: variant CD80 IgV-Fc E35D/M47V/T62S/L85Q (Fc fusion, not shown: a dimerising Fc or GST)
chain: B1 chain with R33Q, E46D, I47V, T62S, L85Q
B30: CD80 IgV-Fc V22D/E24D/E35D/M47L/V68M/L85M/D90G (Fc fusion, not shown: a dimerising Fc or GST)
chain: B1 chain with V22D, E24D, R33Q, E46D, I47L, V68M, L85M, D90G

Biological target: T1, human CTLA4 (full-length, expressed on CHO cells) (human, UniProt P16410 36-223)
T1 construct: also called huCTLA4
Experiment: flow cytometry, CHO cells expressing huCTLA4, PE anti-human Fc

T1 sequence (P16410 36-223): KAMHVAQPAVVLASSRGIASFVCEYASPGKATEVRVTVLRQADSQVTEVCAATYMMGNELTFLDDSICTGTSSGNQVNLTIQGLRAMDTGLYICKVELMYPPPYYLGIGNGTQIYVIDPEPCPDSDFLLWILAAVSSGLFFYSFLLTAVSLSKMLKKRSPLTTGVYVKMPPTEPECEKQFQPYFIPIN

MFI at 33.3 nM	Binder
3560 MFI	B1

Biological target: T2, CD28 (endogenously expressed on Jurkat/IL2 reporter cells) (human, UniProt P10747 19-220)
T2 construct: Endogenous CD28 of Jurkat cells; also called human CD28
Experiment: flow cytometry MFI at 33.3 nM relative to WT CD80 ECD-Fc (R&D), Jurkat cells

Fold change to WT	Binder
0.03 fold	B2
0.04 fold	B3
0.04 fold	B4

Biological target: human CD28 (human, UniProt P10747 19-220)
Experiment: flow cytometry, Jurkat cells (CD28)

MFI at 33.3 nM	Binder
540 MFI	B5
15.2 MFI	B6
191 MFI	B7
1250 MFI	B8
15.6 MFI	B9
284 MFI	B10

Biological target: T3, human PD-L1 (human, UniProt Q9NZQ7 19-290)
T3 construct: whole, on cells; CHO cells stably expressing huPD-L1; also called huPD-L1
Experiment: flow cytometry, CHO cells stably expressing huPD-L1, 33.3 nM Fc fusion, PE anti-human Fc

MFI at 33.3 nM	Binder
68200 MFI	B11
51500 MFI	B12
29300 MFI	B13
55400 MFI	B14
32300 MFI	B15

Biological target: T4, human PD-L1 expressed on CHO cells (human, UniProt Q9NZQ7 19-290)
T4 construct: whole, on cells; Target on CHO cells stably expressing PD-L1; also called huPD-L1
Experiment: flow cytometry, CHO cells stably expressing PD-L1, Fc fusion at 33.3 nM

T4 sequence (Q9NZQ7 19-290): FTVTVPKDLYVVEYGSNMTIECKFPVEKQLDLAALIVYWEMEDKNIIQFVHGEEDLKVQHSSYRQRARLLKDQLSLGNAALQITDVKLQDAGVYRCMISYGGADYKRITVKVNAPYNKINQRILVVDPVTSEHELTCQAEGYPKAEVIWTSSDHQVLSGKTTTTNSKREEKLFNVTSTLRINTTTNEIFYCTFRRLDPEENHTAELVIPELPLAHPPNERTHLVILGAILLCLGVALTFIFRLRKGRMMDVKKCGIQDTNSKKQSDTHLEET

MFI at 33.3 nM	Binder
16600 MFI	B16
21800 MFI	B17
538 MFI	B18
4850 MFI	B19
23500 MFI	B20
23700 MFI	B21
11500 MFI	B22

Biological target: T2, CD28 (endogenously expressed on …)
Experiment: flow cytometry, Jurkat/IL2 reporter cells (endogenous CD28), PE anti-human Fc

MFI at 33.3 nM	Binder
257 MFI	B2
282 MFI	B3
303 MFI	B1
287 MFI	B4

Biological target: T5, human CTLA-4 (human, UniProt P16410 36-223)
T5 construct: also called huCTLA4
Experiment: flow cytometry, CHO cells stably expressing CTLA4

MFI at 33.3 nM	Binder
20600 MFI	B5
19100 MFI	B6
16900 MFI	B7
20100 MFI	B10

Biological target: T6, human CTLA-4 (human, UniProt P16410 36-223)
T6 construct: whole, on cells; CHO cells stably expressing huCTLA4; also called huCTLA4
Experiment: flow cytometry, CHO cells stably expressing huCTLA-4, 33.3 nM Fc fusion, PE anti-human Fc

MFI at 33.3 nM	Binder
22400 MFI	B11
19800 MFI	B23
17300 MFI	B13
13700 MFI	B14
23900 MFI	B15

Biological target: T7, human PD-L1 on CHO cells (human, UniProt Q9NZQ7 19-290)
T7 construct: whole, on cells; CHO cells stably expressing PD-L1; also called huPD-L1
Experiment: flow cytometry, CHO cells stably expressing PD-L1

T7 sequence (Q9NZQ7 19-290): as above

MFI at 33.3 nM	Binder
4880 MFI	B24
3050 MFI	B25
6640 MFI	B26

Biological target: T8, human CD28 (human, UniProt P10747 19-220)
T8 construct: whole, on cells; Jurkat/IL2 reporter cells, which endogenously express CD28
Experiment: flow cytometry, Jurkat/IL2 reporter cells (endogenous CD28), 33.3 nM Fc fusion, PE anti-human Fc

MFI at 33.3 nM	Binder
8190 MFI	B23
6910 MFI	B12
4800 MFI	B15

Biological target: T9, human CTLA4 expressed on CHO cells (human, UniProt P16410 36-223)
T9 construct: whole, on cells; Target on CHO cells stably expressing CTLA4; also called huCTLA4
Experiment: flow cytometry, CHO cells stably expressing CTLA4, Fc fusion at 33.3 nM

T9 sequence (P16410 36-223): as the sequence (P16410 36-223) above

MFI at 33.3 nM	Binder
29500 MFI	B17
2330 MFI	B18
47400 MFI	B19
24800 MFI	B27
32900 MFI	B20
19100 MFI	B22

Biological target: T10, CD28 on Jurkat/IL2 reporter cells (human, UniProt P10747 19-220)
T10 construct: whole, on cells; Endogenous CD28 of Jurkat cells; also called Jurkats (CD28)
Experiment: flow cytometry, Jurkat cells (CD28)

MFI at 33.3 nM	Binder
23.7 MFI	B28
274 MFI	B25
99.4 MFI	B29

Biological target: T11, human PD-L1 (full-length, expressed on CHO cells) (human, UniProt Q9NZQ7 19-290)
T11 construct: also called huPD-L1; CD274
Experiment: flow cytometry, CHO cells expressing huPD-L1, PE anti-human Fc

T11 sequence (Q9NZQ7 19-290): as the sequence (Q9NZQ7 19-290) above

MFI at 33.3 nM	Binder
26700 MFI	B2
37400 MFI	B3
43800 MFI	B4

Biological target: T12, human CTLA4 on CHO cells (human, UniProt P16410 36-223)
T12 construct: whole, on cells; CHO cells stably expressing CTLA4; also called huCTLA4
Experiment: flow cytometry, CHO cells stably expressing CTLA4

T12 sequence (P16410 36-223): as the sequence (P16410 36-223) above

MFI at 33.3 nM	Binder
23300 MFI	B28
24600 MFI	B24
28800 MFI	B25
31200 MFI	B29
20600 MFI	B26

Biological target: T11, human PD-L1 (full-length, expressed on …)
Experiment: flow cytometry MFI at 33.3 nM relative to WT CD80 ECD-Fc (R&D), CHO/huPD-L1 cells

Fold change to WT	Binder
3.36 fold	B2
4.7 fold	B3
5.52 fold	B4

Biological target: T11, human PD-L1 (full-length, expressed on …)
Experiment: flow cytometry, MFI on CHO/huPD-L1 cells over MFI on Jurkat (CD28) cells, 33.3 nM

Ratio of PDL1:CD28	Binder
104 ratio	B2
132 ratio	B3
153 ratio	B4

Biological target: T13, human PD-L1 (human, UniProt Q9NZQ7 19-290)
T13 construct: also called huPD-L1; CD274
Experiment: flow cytometry, CHO cells stably expressing PD-L1

MFI at 33.3 nM	Binder
20400 MFI	B6
15400 MFI	B8
20000 MFI	B9
19000 MFI	B30

— patent US20210130436A1 (published 2021)
